# T1: APBA2_2, Q99767
# T1 sequence (Q99767 654-744, limits assumed, looked up): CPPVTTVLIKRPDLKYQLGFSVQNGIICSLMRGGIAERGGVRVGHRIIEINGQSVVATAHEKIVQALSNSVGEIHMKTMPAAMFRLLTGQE
# T2: ARHGAP21, Q5T5U3
# T2 sequence (Q5T5U3 45-169, limits assumed, looked up): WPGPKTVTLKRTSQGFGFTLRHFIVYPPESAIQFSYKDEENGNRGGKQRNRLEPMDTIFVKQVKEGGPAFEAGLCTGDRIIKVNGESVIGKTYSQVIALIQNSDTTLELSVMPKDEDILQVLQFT
# T3: HTRA4, P83105
# T3 sequence (P83105 378-476, limits assumed, looked up): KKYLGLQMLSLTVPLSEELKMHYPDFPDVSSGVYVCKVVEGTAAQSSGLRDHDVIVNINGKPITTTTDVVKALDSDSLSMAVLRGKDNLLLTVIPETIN
# T4: LIN7C, Q9NUP9
# T4 sequence (Q9NUP9 88-185, limits assumed, looked up): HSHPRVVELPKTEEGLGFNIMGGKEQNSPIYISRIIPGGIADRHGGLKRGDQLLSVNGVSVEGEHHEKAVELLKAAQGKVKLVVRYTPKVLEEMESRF
# T5: LNX2_2, Q8N448
# T5 sequence (Q8N448 334-432, limits assumed, looked up): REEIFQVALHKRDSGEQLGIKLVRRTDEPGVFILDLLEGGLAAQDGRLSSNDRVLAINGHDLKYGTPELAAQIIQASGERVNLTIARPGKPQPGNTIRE
# T6: PDZRN3_1, Q9UPQ7
# T6 sequence (Q9UPQ7 244-349, limits assumed, looked up): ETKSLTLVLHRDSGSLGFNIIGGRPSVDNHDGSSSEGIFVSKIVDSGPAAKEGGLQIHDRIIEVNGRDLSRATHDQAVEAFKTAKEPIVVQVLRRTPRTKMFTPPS
# B1: SCN4A, P35499 (peptide)
# chain: VRPGVKESLV
# B2: PKN2, Q16513 (peptide)
# chain: RDFDYIADWC
# Target: T1, APBA2_2, Q99767
# Test: holdup assay
# Set-up: key: below the threshold = too weak to quantify, mostly under pKd 3.1 to 4
# Settings: plain residues with an end cap or a label only (N-terminal biotin on a linker: ado-ado)
row,Binder,pKd
1,B1,below the threshold
2,B2,below the threshold

# Target: T2, ARHGAP21, Q5T5U3
# Test: holdup assay
# Set-up: key: below the threshold = too weak to quantify, mostly under pKd 3.1 to 4
# Settings: plain residues with an end cap or a label only (N-terminal biotin on a linker: ado-ado)
row,Binder,pKd
1,B1,below the threshold
2,B2,3.71

# Target: DLG1_2, Q12959
# Sequence (Q12959 314-412): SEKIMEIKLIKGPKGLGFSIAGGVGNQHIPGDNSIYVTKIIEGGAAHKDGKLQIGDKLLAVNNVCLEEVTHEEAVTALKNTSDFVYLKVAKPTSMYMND
# Test: holdup assay
# Set-up: key: below the threshold = too weak to quantify, mostly under pKd 3.1 to 4
# Settings: plain residues with an end cap or a label only (N-terminal biotin on a linker: ado-ado)
row,Binder,pKd
1,B1,5.64
2,B2,below the threshold

# Target: DLG2_3, Q15700
# Test: holdup assay
# Set-up: key: below the threshold = too weak to quantify, mostly under pKd 3.1 to 4
# Settings: plain residues with an end cap or a label only (N-terminal biotin on a linker: ado-ado)
row,Binder,pKd
1,B1,4.27
2,B2,3.77

# Target: DLG4_1, P78352
# Sequence (P78352 62-152): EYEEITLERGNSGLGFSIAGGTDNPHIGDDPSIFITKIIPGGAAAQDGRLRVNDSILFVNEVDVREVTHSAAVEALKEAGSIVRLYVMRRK
# Test: holdup assay
# Set-up: key: below the threshold = too weak to quantify, mostly under pKd 3.1 to 4
# Settings: plain residues with an end cap or a label only (N-terminal biotin on a linker: ado-ado)
row,Binder,pKd
1,B1,4.98
2,B2,below the threshold

# Target: DLG4_2, P78352
# Sequence (P78352 155-259): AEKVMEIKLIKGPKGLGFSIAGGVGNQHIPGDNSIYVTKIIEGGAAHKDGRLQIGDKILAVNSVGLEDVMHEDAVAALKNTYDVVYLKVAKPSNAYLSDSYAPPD
# Test: holdup assay
# Set-up: key: below the threshold = too weak to quantify, mostly under pKd 3.1 to 4
# Settings: plain residues with an end cap or a label only (N-terminal biotin on a linker: ado-ado)
row,Binder,pKd
1,B1,5.71
2,B2,below the threshold

# Target: DLG4_3, P78352
# Sequence (P78352 306-403): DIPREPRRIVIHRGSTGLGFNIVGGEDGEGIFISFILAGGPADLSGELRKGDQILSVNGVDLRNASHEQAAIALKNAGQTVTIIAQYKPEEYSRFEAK
# Test: holdup assay
# Set-up: key: below the threshold = too weak to quantify, mostly under pKd 3.1 to 4
# Settings: plain residues with an end cap or a label only (N-terminal biotin on a linker: ado-ado)
row,Binder,pKd
1,B1,4.39
2,B2,below the threshold

# Target: FRMPD3, Q5JV73
# Sequence (Q5JV73 12-100): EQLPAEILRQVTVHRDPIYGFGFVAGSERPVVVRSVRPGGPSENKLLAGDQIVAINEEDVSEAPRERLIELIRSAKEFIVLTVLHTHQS
# Test: holdup assay
# Set-up: key: below the threshold = too weak to quantify, mostly under pKd 3.1 to 4
# Settings: plain residues with an end cap or a label only (N-terminal biotin on a linker: ado-ado)
row,Binder,pKd
1,B1,below the threshold
2,B2,3.48

# Target: FRMPD4, Q14CM0
# Sequence (Q14CM0 67-160): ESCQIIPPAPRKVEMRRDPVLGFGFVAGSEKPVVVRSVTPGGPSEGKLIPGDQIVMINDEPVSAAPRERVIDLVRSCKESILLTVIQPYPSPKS
# Test: holdup assay
# Set-up: key: below the threshold = too weak to quantify, mostly under pKd 3.1 to 4
# Settings: plain residues with an end cap or a label only (N-terminal biotin on a linker: ado-ado)
row,Binder,pKd
1,B1,below the threshold
2,B2,below the threshold

# Target: GOPC, Q9HD26
# Test: holdup assay
# Set-up: key: below the threshold = too weak to quantify, mostly under pKd 3.1 to 4
# Settings: plain residues with an end cap or a label only (N-terminal biotin on a linker: ado-ado)
row,Binder,pKd
1,B1,below the threshold
2,B2,below the threshold

# Target: GORASP1, Q9BQQ3
# Sequence (Q9BQQ3 1-208): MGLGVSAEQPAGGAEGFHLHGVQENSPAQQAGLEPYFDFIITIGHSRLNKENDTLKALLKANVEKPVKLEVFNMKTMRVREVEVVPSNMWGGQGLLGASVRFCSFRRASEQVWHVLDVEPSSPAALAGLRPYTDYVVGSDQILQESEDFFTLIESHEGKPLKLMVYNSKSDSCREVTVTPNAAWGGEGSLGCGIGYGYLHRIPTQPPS
# Test: holdup assay
# Set-up: key: below the threshold = too weak to quantify, mostly under pKd 3.1 to 4
# Settings: plain residues with an end cap or a label only (N-terminal biotin on a linker: ado-ado)
row,Binder,pKd
1,B1,below the threshold
2,B2,below the threshold

# Target: GRASP, Q7Z6J2
# Sequence (Q7Z6J2 96-193): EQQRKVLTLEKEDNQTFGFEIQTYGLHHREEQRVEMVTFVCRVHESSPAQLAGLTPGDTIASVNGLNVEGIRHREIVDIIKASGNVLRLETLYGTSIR
# Test: holdup assay
# Set-up: key: below the threshold = too weak to quantify, mostly under pKd 3.1 to 4
# Settings: plain residues with an end cap or a label only (N-terminal biotin on a linker: ado-ado)
row,Binder,pKd
1,B1,below the threshold
2,B2,4.3

# Target: GRIP2_4, Q9C0E4
# Sequence (Q9C0E4 446-548): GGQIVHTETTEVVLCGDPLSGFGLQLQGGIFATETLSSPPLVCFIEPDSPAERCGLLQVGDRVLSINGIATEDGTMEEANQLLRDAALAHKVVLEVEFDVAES
# Test: holdup assay
# Set-up: key: below the threshold = too weak to quantify, mostly under pKd 3.1 to 4
# Settings: plain residues with an end cap or a label only (N-terminal biotin on a linker: ado-ado)
row,Binder,pKd
1,B1,below the threshold
2,B2,below the threshold

# Target: GRIP2_7, Q9C0E4
# Sequence (Q9C0E4 934-1023): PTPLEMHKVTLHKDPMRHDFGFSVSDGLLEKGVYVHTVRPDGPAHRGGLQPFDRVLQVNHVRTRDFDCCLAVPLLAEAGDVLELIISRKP
# Test: holdup assay
# Set-up: key: below the threshold = too weak to quantify, mostly under pKd 3.1 to 4
# Settings: plain residues with an end cap or a label only (N-terminal biotin on a linker: ado-ado)
row,Binder,pKd
1,B1,below the threshold
2,B2,below the threshold

# Target: HTRA1, Q92743
# Sequence (Q92743 360-477): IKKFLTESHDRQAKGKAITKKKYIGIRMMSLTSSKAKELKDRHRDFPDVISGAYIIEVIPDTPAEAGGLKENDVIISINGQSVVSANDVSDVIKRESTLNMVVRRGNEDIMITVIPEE
# Test: holdup assay
# Set-up: key: below the threshold = too weak to quantify, mostly under pKd 3.1 to 4
# Settings: plain residues with an end cap or a label only (N-terminal biotin on a linker: ado-ado)
row,Binder,pKd
1,B1,3.89
2,B2,4.72

# Target: T3, HTRA4, P83105
# Test: holdup assay
# Set-up: key: below the threshold = too weak to quantify, mostly under pKd 3.1 to 4
# Settings: plain residues with an end cap or a label only (N-terminal biotin on a linker: ado-ado)
row,Binder,pKd
1,B1,below the threshold
2,B2,4.9

# Target: IL16_3, Q14005
# Sequence (Q14005 1107-1207): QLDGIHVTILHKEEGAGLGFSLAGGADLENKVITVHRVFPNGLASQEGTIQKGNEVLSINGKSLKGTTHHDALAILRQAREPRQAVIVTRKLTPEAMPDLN
# Test: holdup assay
# Set-up: key: below the threshold = too weak to quantify, mostly under pKd 3.1 to 4
# Settings: plain residues with an end cap or a label only (N-terminal biotin on a linker: ado-ado)
row,Binder,pKd
1,B1,below the threshold
2,B2,below the threshold

# Target: IL16_4, Q14005
# Sequence (Q14005 1229-1329): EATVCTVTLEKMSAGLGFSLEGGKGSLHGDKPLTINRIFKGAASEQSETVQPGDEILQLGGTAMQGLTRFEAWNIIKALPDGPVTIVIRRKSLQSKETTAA
# Test: holdup assay
# Set-up: key: below the threshold = too weak to quantify, mostly under pKd 3.1 to 4
# Settings: plain residues with an end cap or a label only (N-terminal biotin on a linker: ado-ado)
row,Binder,pKd
1,B1,below the threshold
2,B2,below the threshold

# Target: Inadl_4, Q8NI35
# Sequence (Q8NI35 547-651): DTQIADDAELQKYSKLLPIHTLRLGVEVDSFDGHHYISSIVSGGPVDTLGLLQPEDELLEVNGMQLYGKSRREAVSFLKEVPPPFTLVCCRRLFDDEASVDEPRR
# Test: holdup assay
# Set-up: key: below the threshold = too weak to quantify, mostly under pKd 3.1 to 4
# Settings: plain residues with an end cap or a label only (N-terminal biotin on a linker: ado-ado)
row,Binder,pKd
1,B1,below the threshold
2,B2,below the threshold

# Target: Inadl_5, Q8NI35
# Sequence (Q8NI35 673-780): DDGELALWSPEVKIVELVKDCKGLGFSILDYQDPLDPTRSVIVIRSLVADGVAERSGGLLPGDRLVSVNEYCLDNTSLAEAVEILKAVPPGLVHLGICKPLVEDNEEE
# Test: holdup assay
# Set-up: key: below the threshold = too weak to quantify, mostly under pKd 3.1 to 4
# Settings: plain residues with an end cap or a label only (N-terminal biotin on a linker: ado-ado)
row,Binder,pKd
1,B1,below the threshold
2,B2,below the threshold

# Target: Inadl_8, Q8NI35
# Sequence (Q8NI35 1425-1530): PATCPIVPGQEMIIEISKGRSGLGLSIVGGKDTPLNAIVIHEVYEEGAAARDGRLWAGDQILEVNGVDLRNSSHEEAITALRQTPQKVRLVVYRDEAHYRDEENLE
# Test: holdup assay
# Set-up: key: below the threshold = too weak to quantify, mostly under pKd 3.1 to 4
# Settings: plain residues with an end cap or a label only (N-terminal biotin on a linker: ado-ado)
row,Binder,pKd
1,B1,4.15
2,B2,4.55

# Target: LAP2, Q96RT1
# Sequence (Q96RT1 other isoform, or with tags, fused parts or gaps): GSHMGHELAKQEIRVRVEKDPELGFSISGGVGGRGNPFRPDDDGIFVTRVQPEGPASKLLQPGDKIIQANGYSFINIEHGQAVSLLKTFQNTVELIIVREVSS
# Test: holdup assay
# Set-up: key: below the threshold = too weak to quantify, mostly under pKd 3.1 to 4
# Settings: plain residues with an end cap or a label only (N-terminal biotin on a linker: ado-ado)
row,Binder,pKd
1,B1,3.99
2,B2,4.01

# Target: LDB3, O75112
# Sequence (O75112 1-94): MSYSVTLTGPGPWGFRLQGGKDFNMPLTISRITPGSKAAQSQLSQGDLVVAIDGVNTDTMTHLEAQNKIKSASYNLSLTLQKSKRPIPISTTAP
# Test: holdup assay
# Set-up: key: below the threshold = too weak to quantify, mostly under pKd 3.1 to 4
# Settings: plain residues with an end cap or a label only (N-terminal biotin on a linker: ado-ado)
row,Binder,pKd
1,B1,below the threshold
2,B2,below the threshold

# Target: T4, LIN7C, Q9NUP9
# Test: holdup assay
# Set-up: key: below the threshold = too weak to quantify, mostly under pKd 3.1 to 4
# Settings: plain residues with an end cap or a label only (N-terminal biotin on a linker: ado-ado)
row,Binder,pKd
1,B1,4.38
2,B2,below the threshold

# Target: LNX1_1, Q8TBB1
# Sequence (Q8TBB1 261-371): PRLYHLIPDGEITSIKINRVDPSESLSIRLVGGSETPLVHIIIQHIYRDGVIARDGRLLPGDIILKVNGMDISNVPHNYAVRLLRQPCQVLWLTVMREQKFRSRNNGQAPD
# Test: holdup assay
# Set-up: key: below the threshold = too weak to quantify, mostly under pKd 3.1 to 4
# Settings: plain residues with an end cap or a label only (N-terminal biotin on a linker: ado-ado)
row,Binder,pKd
1,B1,3.89
2,B2,below the threshold

# Target: T5, LNX2_2, Q8N448
# Test: holdup assay
# Set-up: key: below the threshold = too weak to quantify, mostly under pKd 3.1 to 4
# Settings: plain residues with an end cap or a label only (N-terminal biotin on a linker: ado-ado)
row,Binder,pKd
1,B1,3.91
2,B2,4.59

# Target: MAGI1_1, Q96QZ7
# Sequence (Q96QZ7 1-106): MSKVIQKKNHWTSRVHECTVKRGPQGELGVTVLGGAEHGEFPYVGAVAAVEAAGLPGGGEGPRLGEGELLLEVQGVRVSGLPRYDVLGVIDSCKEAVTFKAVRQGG
# Test: holdup assay
# Set-up: key: below the threshold = too weak to quantify, mostly under pKd 3.1 to 4
# Settings: plain residues with an end cap or a label only (N-terminal biotin on a linker: ado-ado)
row,Binder,pKd
1,B1,below the threshold
2,B2,below the threshold

# Target: MAGI2_2, Q86UL8
# Sequence (Q86UL8 410-522): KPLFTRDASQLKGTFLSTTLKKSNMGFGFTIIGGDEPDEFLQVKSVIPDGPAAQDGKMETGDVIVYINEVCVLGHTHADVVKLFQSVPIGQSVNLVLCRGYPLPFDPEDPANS
# Test: holdup assay
# Set-up: key: below the threshold = too weak to quantify, mostly under pKd 3.1 to 4
# Settings: plain residues with an end cap or a label only (N-terminal biotin on a linker: ado-ado)
row,Binder,pKd
1,B1,5.2
2,B2,below the threshold

# Target: MAGI2_3, Q86UL8
# Sequence (Q86UL8 600-682): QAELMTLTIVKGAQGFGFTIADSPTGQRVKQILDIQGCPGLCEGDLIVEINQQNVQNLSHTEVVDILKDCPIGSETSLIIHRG
# Test: holdup assay
# Set-up: key: below the threshold = too weak to quantify, mostly under pKd 3.1 to 4
# Settings: plain residues with an end cap or a label only (N-terminal biotin on a linker: ado-ado)
row,Binder,pKd
1,B1,4.51
2,B2,below the threshold

# Target: MAGI2_5, Q86UL8
# Sequence (Q86UL8 915-1017): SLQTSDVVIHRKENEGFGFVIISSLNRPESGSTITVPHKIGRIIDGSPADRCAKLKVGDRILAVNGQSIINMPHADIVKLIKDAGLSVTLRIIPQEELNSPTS
# Test: holdup assay
# Set-up: key: below the threshold = too weak to quantify, mostly under pKd 3.1 to 4
# Settings: plain residues with an end cap or a label only (N-terminal biotin on a linker: ado-ado)
row,Binder,pKd
1,B1,5.03
2,B2,3.95

# Target: PDLIM1, O00151
# Sequence (O00151 1-87): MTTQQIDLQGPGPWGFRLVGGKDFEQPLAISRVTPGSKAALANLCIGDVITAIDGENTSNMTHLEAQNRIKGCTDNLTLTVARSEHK
# Test: holdup assay
# Set-up: key: below the threshold = too weak to quantify, mostly under pKd 3.1 to 4
# Settings: plain residues with an end cap or a label only (N-terminal biotin on a linker: ado-ado)
row,Binder,pKd
1,B1,below the threshold
2,B2,below the threshold

# Target: T6, PDZRN3_1, Q9UPQ7
# Test: holdup assay
# Set-up: key: below the threshold = too weak to quantify, mostly under pKd 3.1 to 4
# Settings: plain residues with an end cap or a label only (N-terminal biotin on a linker: ado-ado)
row,Binder,pKd
1,B1,4.38
2,B2,below the threshold

# Target: TJP1_2, Q07157
# Sequence (Q07157 181-274): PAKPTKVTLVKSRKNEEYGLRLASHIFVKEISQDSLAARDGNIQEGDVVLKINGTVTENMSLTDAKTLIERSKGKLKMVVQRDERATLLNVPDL
# Test: holdup assay
# Set-up: key: below the threshold = too weak to quantify, mostly under pKd 3.1 to 4
# Settings: plain residues with an end cap or a label only (N-terminal biotin on a linker: ado-ado)
row,Binder,pKd
1,B1,below the threshold
2,B2,3.6

# Source: article PMC9482650, “Quantitative fragmentomics allow affinity mapping of interactomes” (Nature Communications, 2022)
